Where a chain is given by its changes, count along the chain named. Numbers in names are those of the source.
T1: Human CD3eg linker (human)
T1 construct: single-chain construct; also called recombinant human CD3
T1 chain: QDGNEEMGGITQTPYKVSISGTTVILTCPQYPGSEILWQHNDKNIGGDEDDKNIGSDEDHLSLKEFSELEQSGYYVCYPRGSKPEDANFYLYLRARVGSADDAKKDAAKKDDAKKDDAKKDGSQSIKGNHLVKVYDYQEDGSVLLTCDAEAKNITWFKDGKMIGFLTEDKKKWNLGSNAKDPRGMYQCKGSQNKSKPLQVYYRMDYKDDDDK

B1: dBBDu183H K64W/dBBDu072L (antibody, name in Kabat numbering, V domains shown)
VH: QVQLVESGGGLVQPGRSLRLSCAASGFTFSNAWMHWVRQAPGKGLEWVAQIKDKGNAYAAYYAPSVWGRFTISRDDSKNSIYLQMNSLKTEDTAVYYCHYVHYASASTVLPAFGVDAWGQGTTVTVSS
VL: DIVMTQSPLSLPVTPGEPASISCQASQELVHMNRNTYLHWYQQKPGQAPRLLIYKVSNRFPGVPDRFSGSGSGTDFTLKISRVEAEDVGVYYCAQGTSVPFTFGQGTKLEIK
B2: dBBDu183H L100dD/dBBDu072L (antibody, name in Kabat numbering, V domains shown)
VH: B1 VH with W67K, L110D
VL: B1 VL
B3: dBBDu183H P61Y/dBBDu072L (antibody, name in Kabat numbering, V domains shown)
VH: B1 VH with P64Y, W67K
VL: B1 VL
B4: dBBDu183H L100dK/dBBDu072L (antibody, name in Kabat numbering, V domains shown)
VH: B1 VH with W67K, L110K
VL: B1 VL
B5: dBBDu183H L100dR/dBBDu072L (antibody, name in Kabat numbering, V domains shown)
VH: B1 VH with W67K, L110R
VL: B1 VL
B6: dBBDu183H S62E/dBBDu072L (antibody, name in Kabat numbering, V domains shown)
VH: B1 VH with S65E, W67K
VL: B1 VL
B7: dBBDu183H P100eY/dBBDu072L (antibody, name in Kabat numbering, V domains shown)
VH: B1 VH with W67K, P111Y
VL: B1 VL
B8: dBBDu183H P100eH/dBBDu072L (antibody, name in Kabat numbering, V domains shown)
VH: B1 VH with W67K, P111H
VL: B1 VL
B9: dBBDu183H P61N/dBBDu072L (antibody, name in Kabat numbering, V domains shown)
VH: B1 VH with P64N, W67K
VL: B1 VL
B10: dBBDu183H P100eD/dBBDu072L (antibody, name in Kabat numbering, V domains shown)
VH: B1 VH with W67K, P111D
VL: B1 VL
B11: dBBDu183H L100dT/dBBDu072L (antibody, name in Kabat numbering, V domains shown)
VH: B1 VH with W67K, L110T
VL: B1 VL
B12: dBBDu183H L100dW/dBBDu072L (antibody, name in Kabat numbering, V domains shown)
VH: B1 VH with W67K, L110W
VL: B1 VL
B13: dBBDu183H S62D/dBBDu072L (antibody, name in Kabat numbering, V domains shown)
VH: B1 VH with S65D, W67K
VL: B1 VL
B14: dBBDu183H P61D/dBBDu072L (antibody, name in Kabat numbering, V domains shown)
VH: B1 VH with P64D, W67K
VL: B1 VL
B15: dBBDu183H L100dS/dBBDu072L (antibody, name in Kabat numbering, V domains shown)
VH: B1 VH with W67K, L110S
VL: B1 VL
B16: dBBDu183H P61H/dBBDu072L (antibody, name in Kabat numbering, V domains shown)
VH: B1 VH with P64H, W67K
VL: B1 VL
B17: dBBDu183H P100eE/dBBDu072L (antibody, name in Kabat numbering, V domains shown)
VH: B1 VH with W67K, P111E
VL: B1 VL
B18: dBBDu183H P100eN/dBBDu072L (antibody, name in Kabat numbering, V domains shown)
VH: B1 VH with W67K, P111N
VL: B1 VL
B19: dBBDu183H P100eS/dBBDu072L (antibody, name in Kabat numbering, V domains shown)
VH: B1 VH with W67K, P111S
VL: B1 VL
B20: dBBDu183H P100eR/dBBDu072L (antibody, name in Kabat numbering, V domains shown)
VH: B1 VH with W67K, P111R
VL: B1 VL
B21: dBBDu183H P61W/dBBDu072L (antibody, name in Kabat numbering, V domains shown)
VH: B1 VH with P64W, W67K
VL: B1 VL
B22: dBBDu183H P100eQ/dBBDu072L (antibody, name in Kabat numbering, V domains shown)
VH: B1 VH with W67K, P111Q
VL: B1 VL
B23: dBBDu183H L100dG/dBBDu072L (antibody, name in Kabat numbering, V domains shown)
VH: B1 VH with W67K, L110G
VL: B1 VL
B24: dBBDu183H P61K/dBBDu072L (antibody, name in Kabat numbering, V domains shown)
VH: B1 VH with P64K, W67K
VL: B1 VL
B25: dBBDu183H P100eK/dBBDu072L (antibody, name in Kabat numbering, V domains shown)
VH: B1 VH with W67K, P111K
VL: B1 VL
B26: dBBDu183H L100dQ/dBBDu072L (antibody, name in Kabat numbering, V domains shown)
VH: B1 VH with W67K, L110Q
VL: B1 VL
B27: dBBDu183H P100eF/dBBDu072L (antibody, name in Kabat numbering, V domains shown)
VH: B1 VH with W67K, P111F
VL: B1 VL
B28: dBBDu183H P61R/dBBDu072L (antibody, name in Kabat numbering, V domains shown)
VH: B1 VH with P64R, W67K
VL: B1 VL
B29: dBBDu183H K64Y/dBBDu072L (antibody, name in Kabat numbering, V domains shown)
VH: B1 VH with W67Y
VL: B1 VL
B30: dBBDu183H L100dN/dBBDu072L (antibody, name in Kabat numbering, V domains shown)
VH: B1 VH with W67K, L110N
VL: B1 VL
B31: dBBDu183H P61G/dBBDu072L (antibody, name in Kabat numbering, V domains shown)
VH: B1 VH with P64G, W67K
VL: B1 VL
B32: dBBDu183H P61T/dBBDu072L (antibody, name in Kabat numbering, V domains shown)
VH: B1 VH with P64T, W67K
VL: B1 VL
B33: dBBDu183H L100dF/dBBDu072L (antibody, name in Kabat numbering, V domains shown)
VH: B1 VH with W67K, L110F
VL: B1 VL
B34: dBBDu183H L100dY/dBBDu072L (antibody, name in Kabat numbering, V domains shown)
VH: B1 VH with W67K, L110Y
VL: B1 VL
B35: dBBDu183H P61E/dBBDu072L (antibody, name in Kabat numbering, V domains shown)
VH: B1 VH with P64E, W67K
VL: B1 VL
B36: dBBDu183H P61Q/dBBDu072L (antibody, name in Kabat numbering, V domains shown)
VH: B1 VH with P64Q, W67K
VL: B1 VL
B37: dBBDu183H P100eV/dBBDu072L (antibody, name in Kabat numbering, V domains shown)
VH: B1 VH with W67K, P111V
VL: B1 VL
B38: dBBDu183H P61S/dBBDu072L (antibody, name in Kabat numbering, V domains shown)
VH: B1 VH with P64S, W67K
VL: B1 VL
B39: dBBDu183H P100eG/dBBDu072L (antibody, name in Kabat numbering, V domains shown)
VH: B1 VH with W67K, P111G
VL: B1 VL
B40: dBBDu183H P100eW/dBBDu072L (antibody, name in Kabat numbering, V domains shown)
VH: B1 VH with W67K, P111W
VL: B1 VL
B41: dBBDu183H L100dE/dBBDu072L (antibody, name in Kabat numbering, V domains shown)
VH: B1 VH with W67K, L110E
VL: B1 VL
B42: dBBDu183H P61F/dBBDu072L (antibody, name in Kabat numbering, V domains shown)
VH: B1 VH with P64F, W67K
VL: B1 VL
B43: dBBDu183H L100dH/dBBDu072L (antibody, name in Kabat numbering, V domains shown)
VH: B1 VH with W67K, L110H
VL: B1 VL
B44: dBBDu183H P100eT/dBBDu072L (antibody, name in Kabat numbering, V domains shown)
VH: B1 VH with W67K, P111T
VL: B1 VL
B45: dBBDu183H L100dV/dBBDu072L (antibody, name in Kabat numbering, V domains shown)
VH: B1 VH with W67K, L110V
VL: B1 VL

Biological target: T1, Human CD3eg linker
Assay: SPR, vs unmutated H183/L072

Point of comparison: B4, “fold change of affinity” value 1.8 fold. Against it:
- B1 — lower, 1 fold
- B2 — lower, 1 fold
- B3 — higher, 1.9 fold
- B5 — the same, 1.8 fold
- B6 — lower, 1.2 fold
- B7 — higher, 2 fold
- B8 — lower, 1.5 fold
- B9 — lower, 1.5 fold
- B10 — lower, 0.7 fold
- B11 — lower, 1.3 fold
- B12 — lower, 1.7 fold
- B13 — lower, 1.2 fold
- B14 — higher, 1.9 fold
- B15 — lower, 1.2 fold
- B16 — the same, 1.8 fold
- B17 — lower, 1 fold
- B18 — lower, 1.3 fold
- B19 — lower, 1.2 fold
- B20 — higher, 2.2 fold
- B21 — the same, 1.8 fold
- B22 — lower, 1.5 fold
- B23 — higher, 2 fold
- B24 — lower, 1.7 fold
- B25 — higher, 2.1 fold
- B26 — lower, 1.1 fold
- B27 — higher, 1.9 fold
- B28 — lower, 1.6 fold
- B29 — lower, 1 fold
- B30 — lower, 1.2 fold
- B31 — lower, 1.5 fold
- B32 — lower, 1 fold
- B33 — lower, 1.3 fold
- B34 — lower, 1.4 fold
- B35 — the same, 1.8 fold
- B36 — the same, 1.8 fold
- B37 — lower, 1.5 fold
- B38 — lower, 1.3 fold
- B39 — lower, 1.6 fold
- B40 — lower, 1.7 fold
- B41 — lower, 0.7 fold
- B42 — the same, 1.8 fold
- B43 — lower, 1.3 fold
- B44 — lower, 1.4 fold
- B45 — lower, 1 fold
